Data taken from the nanobody polyreactivity screen of Harvey et al. (2022).

Assay: yeast display, Sf9 membrane polyspecificity reagent, FACS + sequencing; frameworks hold sequencing errors
In short: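 Sorting gates, low and high (top ~1%), were placed on anti-HA fluorescence to track expression and on streptavidin fluorescence to track reagent binding. A clone's polyreactivity label is taken from the gate it came out of. The reagent was 10% biotinylated, detergent-solubilized Sf9 membrane, applied for 1 hour at 4 °C to galactose-induced yeast display cells.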

Row | Sequence | polyreactivity (PSR sort gate)
1 | QGQLVESGGGLVQAGGSLRLSCAASGNIFNRYGMGWSRQAPGKERELVAAISSSGTSPYYADSVKGRFTISRDYAKNTVYLQMNSLKPEDTAVYYCAASYPTRAWEYDYWGQGTQVTVSS | high polyreactivity
2 | QGQLVESGGGLVQAGGSLRLSCAASGNTFGKNAMGWYRQAPGKERELVAAIRSSGGSTYYADSVKGRFTISRDNAKNTVYLQMNSLKPEDSAVYYCNADVIRQTDGYDYWGQGTLVTVSS | high polyreactivity
3 | QGQLVESGGGLVQAGGSLRLSCAASGRIFPAYGMAWYRQAPGQERELVATIDNGGGTYYADSVKGRFTISRDNAKNTVYLQMNSLKPEDTAVYYCARDRHVRWGLKMDFWGQGTQVTVSS | low polyreactivity
4 | QGQLVESGGGLVQAGGSLRLSCAASGRIFRIYAMGWYRQAPGKERELVARITYSGGSTYYADSVKGRFTISRDNAKNTVYLQMNSLKPEDTAVYYCAADWLGYQYGYWGQGTQVTVSW | low polyreactivity
5 | QGQLVESGGGLVQAGGSLRLSCAASGRTFFNNVMGWYRQAPGKERELVAAISKSGTRTYYADSVKGRFTISRDNAKNTVYLQMNSVKPEDTAVYYCATGQYLRTSRYYYWGHGTQVTVSS | high polyreactivity
6 | QGQLVESGGGLVQAGGSLRLSCAASGRTFYANAMGWYRQAPGKERELVAAISTGGDGTYYADSVKGRFTISRDNAKNTVYLQMNSLKPEDAAVYYCAVRHRASGILYDYWGQGTQVTVSS | low polyreactivity
7 | QGQLVESGGGLVQAGGSLRLSCAASGRTFYRNAMGWYRQAPGKEREFVAAITSIGGATYYADSVKGRFTISRDNAKNTVDLQMNSLKPEDTAVYYCAAKGFRYPEYDYWGQGTQVTVSS | low polyreactivity
8 | QGQLVESGGGLVQAGGSLRLSCAASGSIFNTYAMGWYRQAPGKEREFVASISRSGGSTRYADSVKGRFTISRDNAKNTVYLQMNSLKPEDTEVYYSAARVPRGHVTYDSWGQGTKVTVSS | high polyreactivity
9 | QGQLVESGGGLVQAGGSLRLSCAASGSIFPYYAMGWYRQAHGKERELVAVITTSGGRTYYADSVKGRFTISRDNAKNTVYLQMNSLKPADTAVYYCATDVRQGSGWRYYYWGQGTQVTVSS | high polyreactivity
10 | QGQLVESGGGLVQAGGSLRLSCAASGSIFSLNSMGWYRQAPGKERELVAASGGGSTYYADSVKGRFTISRDNAKNTVYLQMNSLKTEDTAVYYCAGDQSFDYDFSHYYYWGQGTQVTVSS | low polyreactivity
11 | QGQLVESGGGLVQAGGSLRLSCAASGSIFVINAMGWYRQAPGKERELVAAIDWGGDTTYYADSVKGRFTISRDNAKNTVYLQMNSLKPEDSAVYYCAAGYYLRRYYYWGQGTQVTVSS | high polyreactivity
12 | QGQLVESGGGLVQAGGSLRLSCAASGSIFVYNVMGWYRQEPGKATELVADISKTAGRTYSADSVKGRFTISRDNAKNTVYLQINSLKPEDTAVSYCAVGNKRDAYYQYSSYGYWGQGTQVTVSS | low polyreactivity
13 | QGQLVESGGGLVQAGGSLRLSCAASGSIFYINAMGWYRQAPGKERELVASISGGGGSTYYADSVKGRFTLSRDNAKNTVYLQMNSLKPEDTAVYYCNTVSRKDYDYWGQGTQVTVSS | high polyreactivity
14 | QGQLVESGGGLVQAGGSLRLSCAASGSIYPLNVMGWYRQSPGKERELVATISKSGGSTYYADSVKGRITISRDNAKNTVYLQMNSLKPEDTGVYNCTVGRYVVGGTSVGYWGQGTQVSVSS | low polyreactivity
15 | QGQLVESGGGLVQAGGSLRLSCAASGYIFDWYAMGWYRQAPGKEREFVAAISGSDGSTYYADSVKGRFTISRDNAKNTVYLQMNSLKPEDSAVYYCAADPYYGEMEYWGQGTQVTVSS | low polyreactivity
16 | QGQLVESGGGLVQAGGSLRLSCAASGYIFLTNAMGWSREAPGKERVLVAAISWRGGRTYYADSVKGRFTISRDNAKNTVYLQMNSLKPEDTAVYYCNAVCEYYGKSDYWGQGTQVTVSS | low polyreactivity
17 | QGQLVESGGGLVQAGGSLRLSCAASGYTFYANAMGWYRQAPGNEREFVASITWSGGSTYYADSVKGRFTLSRDNAKNTVYLQMNSLKPEDTAVSDCAAESWFKYDYWGQGTQVTVSS | low polyreactivity
18 | QGQLVESGGGLVQAGGSLRLSCDASGRIFRKYDMGWYRQAPGKERELVAAISGTGITYYADSVKGRFTISRDNANNTVYLQMNSLKPEDTAVYYCARGSKPRALSWADPSATSIYDYWGQGTQVTVSS | low polyreactivity
19 | QGQLVESGGGLVQAGGSLRLSCPASGRIFNTYAMGWYRQAPGKERELVAAINWSGGRTYYADSVKGRFTISRDNAKNTVYLQMNSLKPEDSAVYYCKARGRRRVPEFDYWGQGSQVTVSS | high polyreactivity
20 | QGQLVESGGGLVQAGGSLRLSCPASGRIYVFYAMGRYRQATGKEREFVATISYSGDTTYYADSVKGRFTISRDNAKNTVYLQMNSLKPEDTAVYYCAADLVPSYYYVPMGYDSWGQGTQVTVSS | low polyreactivity
21 | QGQLVESGGGLVQAGGSLRLSGAASGRTFRCNAMGWYRQAPGKERELVAAITSSGGRTYYADSVNGRFTISRDNAKNTVYLQMNSLKPEDTAVYYCAADAYQRGSGRYYEYDYWGQGTQVTVSS | high polyreactivity
22 | QGQLVESGGGLVQAGGSLRLSSAASGNTFYGYAMGWYRQSPGKERELVASITLSGDSTYYADSVKGRFTISRDNAKNTVYLQMNSLKPEDTAVYYWAGVYTYPLGYYHYTYDYWGQGTQVTVSS | low polyreactivity

Row | Sequence | polyreactivity (PSR sort gate)
23 | QGQLVESGGGLVQAGGSLSLSCAASGSIFPVYAMGWYRQAPGTEREFVARIRFSGGRTYYADSVQGRFTISRDNAKNTVYLQMNSLKPEDTAVYYCAKAQYRGRYGYWGQGTQVTVSS | high polyreactivity
24 | QGQLVESGGGLVQAGGSLSLSCAASRFTFQRYAMGWDRQAPGKERELVAAISVSGGRTYYADSVKGRFTISRDNAKNSVYLQMNSLKPEDTAVYYCAAEGFLGWYYYWGQGNQVTVSS | high polyreactivity
25 | QGQLVESGGGLVQAGGSRRLSCAASGRIFFYYAMGGYRQGPGQARELVAAISQSGASTYYADSVKGRFTISRDTAKNTVYLQMNSLKPEDTAVYYCNHKPYWYRDYYYWGQGTQVTVSS | high polyreactivity
26 | QGQLVESGPVLVQAGCSLRLSSAASGYTFGWYAMGWYRQAPGKLRELVAGISSAGSTNYADSVNGRFTISRDNANINVYLQMNSLKPEDTAVYYCAAEVRYWFLADDYWGQGTQVTVSS | high polyreactivity
27 | QGQLVESVGGLVQAGVSLRLSCAASGRIFPSYAMGCYRPAPGKERELVAAISSSGGRTYYADSVKGRFTISRDNAKNTVYLQMNSLKPEDTAVYYCAARWVHYGVRYDYWGPGTQVTVSS | high polyreactivity
28 | QGQRVESGGGLVQAGCSLRLSSAASGSTFNEYTLGWYRQAPGKERELVAAIRASDGSTFYADTVKGRFTISRDYAKNSVYFQMNSLKPEDTSVYYCPADYYWNDYWGQGTQVTVSS | low polyreactivity
29 | QGQVVESGGGLVQAGGSLRLSCAASGSTFYGYAMGWYREAAGKERELVAAISRDGSTNYADSVKGRFTISRDNAKNTVYLQMNSLKPEDTAVYYCATRTKKRAPYKFYSWGQGTQVTVSS | high polyreactivity
30 | QHQLVESGGGLVQAGGSLRLSCAASGRTSLDYAMGWYRQAPGKERELVSAIRSGGITNYADSVKGRFTISRDNAKNTVYLQLNSLKPEDTAVYYCAARVHRAYSTGSIVYYWGQGTQVNVSS | high polyreactivity
31 | QIKLEESGGGLVQAGGSLRISCAASGSTYWDKVMGWYRQAPGKEMELVAAIDSGGSTYYADSVKGRFTISRDNAKNTVYLLMNSLKPEDTEVYYCNSRVDTPSPYDYWGQGTQVTVSS | low polyreactivity
32 | QIQLEESGGGLVQAGGSLRLSCAASGSIFSVYAMGWYRQAPGKERELVATISTGGSTYYADSVKGRFTISRDNAKNTVYLQMNSLKPEDTAVYYCNAQFTPRYWGGYDSWGQGTQVTVSS | low polyreactivity
33 | QIQLEESVGGLVQAGGTLRLSCASSGFTFYINVMGWDRQAPGKERELVAAISGTGGTNYADSVKGRFTISRDNAKNTVYLQMNSLKPEDTAVYYCARDYYVYSTGHVPLDYWGQGTQVTVSS | low polyreactivity
34 | QIQLVESGGGLVQAGGSLRLSCAASGGIFYINAMGWYRQAPGKERELVAAITESSDITYYADSVKGRFTISRDNAKNSVYLQINSLKPEDTAVYYCAAEFVRSGDDYWGQGTQVTVSS | low polyreactivity
35 | QIQLVESGGWLVQAGGSLRLRCAASGNTIHWNVMVWYRQPPGKERELVATITFSGSSTYYADSVKGRFTISRDNAKNTVYLQMNSLQPEDTAVYFCNATRYRLRPSGVRYKYNYWGQGTQGTVSS | low polyreactivity
36 | QLHLQESGGLVQAGGLRLSCAASGSVSYQEAMGWYRQAPGKERELVATISFGANTNYADSVKGRFTISRDNAKNTVYLQMNSLKPEDTAVYYCAAESLFDDYYGYWGQGTQVTVSS | low polyreactivity
37 | QLHLQVSGGGLVQAGGSLRLSCAASGSIFLTSEKGWYRQAPGKERELVAAIATGTSTNYADSVKGRFTISRDNAKNTVYLQLNSLKPEDTAVYYCATYDYWGQGTKVTVSS | low polyreactivity
38 | QLKLVESGGGLVQAGGSLRLSCAASGSIFDVNAMGWYREAPGKEMELVAAISDSGGSTYYADSVKGRFTISRDNAKNTVYLQMNSLKPEDTAVYYCNADWSWYHYYDCDYWGQGTQVTVSS | low polyreactivity
39 | QLQHVESGGGLVQAGGSLRLSCAASGGIFGIYAMGWYRQAPGKESELVAAISRRGGSTYFADSVKGRFTISRDNAKNTVYLQMKSLKPADTAVYYCAAVRRGVNTSFGYRPLNYWGQGTEVTVSS | high polyreactivity
40 | QLQHVESGGGLVQAGGSLRLSCAASGSTFYRNAMGWYRQAPGKDRELVAAISRGSRTYYADSVKGRFTISRDNAKNTVYLQMNSLKPEDTAVYYCAALYGSRSTYHMDDYWGQGTQVTVSS | high polyreactivity
41 | QLQHVETGGGLVQAGGSLRLSCAASGRIFIRNHMGWYRQAPGKERELVAVITRSGGRTYYADSVKGRFTISRDNANNTVYLQMNRVKPEDTAVYYCAKRQAFKQATYDYWGQGTQVTVSS | low polyreactivity
42 | QLQLEESGGGLVQAGGSLRLSCAASRRIIVGYAKGRYRQAPGKEREFVAAITFRGGTTYYADSVKGRLTISRDNAKNTVYLQMNSLNQEDSAVYYCAVPHYLYSVEFGYWGQGTQVTVSS | low polyreactivity
43 | QLQLGESGGGLVQAGGSLRLSCAGSGSIFNYYAMGWYRQATGKERELVAAITSGGSTYYADSVKGRFTISRDNAKNTVYLQMNSLKPEDTAVYYCNKAFPYIYEYWGQGTQVTVSS | low polyreactivity
